{
  "source": "paper PMC9932118",
  "binders": {"B1": {"name": "GaCCC crystal DNA 7N5W (dsDNA)", "DNA 1": "GGGACCCTTCATGTTT", "DNA 2": "CAAACATGAAGGGTCC"}, "B2": {"name": "GaCCC crystal DNA 7N5V (dsDNA)", "DNA 1": "GGGACCCTTGATGTTT", "DNA 2": "AAACATCAAGGGTCCC"}, "B3": {"name": "CAST crystal DNA 8E3D (dsDNA)", "DNA 1": "GGTAAAAGACCCCTCCCCAAAT", "DNA 2": "ATTTGGGGAGGGGTCTTTTACC"}, "B4": {"name": "CAST crystal DNA 8E3E (dsDNA)", "DNA 1": "GGTAAAAGACCCCTCCCCAAA", "DNA 2": "CTTTGGGGAGGGGTCTTTTAC"}, "B5": {"name": "oligo #6 CAST 16 bp (dsDNA)", "DNA 1": "AAGACCCCTCCCCGAA", "DNA 2": "TTCGGGGAGGGGTCTT"}, "B6": {"name": "GaCCC crystal DNA 7N5U (dsDNA)", "DNA 1": "GGGACCCTTGATGTTT", "DNA 2": "CAAACATCAAGGGTCC"}},
  "key": {"[1]": {"target": "T1, ZBTB7A ZF1-4 short fragment (Homo sapiens, UniProt O95365 370-500)", "T1 sequence (O95365 370-500)": "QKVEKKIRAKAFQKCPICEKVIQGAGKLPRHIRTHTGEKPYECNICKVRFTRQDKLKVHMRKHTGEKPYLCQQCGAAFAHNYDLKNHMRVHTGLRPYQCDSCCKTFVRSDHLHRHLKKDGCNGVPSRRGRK", "test": "X-ray crystallography"}, "[2]": {"target": "T1, ZBTB7A ZF1-4 short fragment", "test": "X-ray crystallography", "remark": "listed apart in the source"}, "[3]": {"target": "T1, ZBTB7A ZF1-4 short fragment", "test": "X-ray crystallography", "remark": "listed apart in the source"}, "ZBTB7A long fragment [4]": {"target": "T2, ZBTB7A long fragment (Homo sapiens, UniProt O95365 341-505)", "T2 sequence (O95365 341-505)": "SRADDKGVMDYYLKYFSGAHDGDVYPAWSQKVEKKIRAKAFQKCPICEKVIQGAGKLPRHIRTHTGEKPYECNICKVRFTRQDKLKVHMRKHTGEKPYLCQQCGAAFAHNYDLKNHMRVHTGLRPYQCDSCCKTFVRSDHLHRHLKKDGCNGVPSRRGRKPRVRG", "test": "X-ray crystallography"}, "[5]": {"target": "T1, ZBTB7A ZF1-4 short fragment", "test": "FP"}, "ZBTB7A long fragment [6]": {"target": "T2, ZBTB7A long fragment", "test": "FP"}, "[7]": {"target": "T1, ZBTB7A ZF1-4 short fragment", "test": "X-ray crystallography", "remark": "listed apart in the source"}},
  "note": "Like-named read-outs stand apart in the source and are kept apart here.",
  "data": [
    {"binder": "B1", "values": [
      {"measurement": "binding result", "setting": "[1]", "result": "binds"}
    ]},
    {"binder": "B2", "values": [
      {"measurement": "binding result", "setting": "[2]", "result": "binds"}
    ]},
    {"binder": "B3", "values": [
      {"measurement": "binding result", "setting": "[3]", "result": "binds"}
    ]},
    {"binder": "B4", "values": [
      {"measurement": "binding result", "setting": "ZBTB7A long fragment [4]", "result": "binds"}
    ]},
    {"binder": "B5", "values": [
      {"measurement": "Kd", "setting": "[5]", "result": "~80", "unit": "nM"},
      {"measurement": "Kd", "setting": "ZBTB7A long fragment [6]", "result": "~80", "unit": "nM"}
    ]},
    {"binder": "B6", "values": [
      {"measurement": "binding result", "setting": "[7]", "result": "binds"}
    ]}
  ]
}
